Laboratory results as given in US20160000054A1, “HUMAN-DERIVED MUTANTS OF THE dSOD1 GENE IN DROSOPHILA AND METHODS OF MAKING AND USING” (priority 2014, published 2016).

Assays:
Format in all cases: in vivo, Drosophila melanogaster
[1] = tested on: dSod1-G85R and dSod1-H71Y mutant larvae; test: Larval locomotor (motility) defect in dSod1 mutant larvae; details: expression of Gbb
Source text: (§1) The genetically accurate model of ALS disclosed herein, can be used to elucidate not only the behavioral and electrophysiological changes, but also the cellular and molecular basis of disease progression. ALS-associated loss in motor neuron function and subsequent cell death has been attributed to defects in a number of processes from protein aggregation, increases is axonal membrane excitability, mitochondrial dysfunction, to changes in RNA metabolism and general metabolic homeostasis (49-55). This model system was used to explore the involvement of these processes in disease progression. […] The time of death varied between the different dSod1 mutations with <0.1% dSod1-G85R adults emerging from the pupal case (a feat requiring considerable muscle strength) to 33% emergence by the less severe dSod1-H71Y followed by death within 7-10 days of adulthood. […] Characterization of this progressive loss in motor function in detail during can be performed using immunohistochemical markers of muscle, as well as Drosophila lines expressing GFP-tagged muscle proteins (Mhc-mCD8-GFP) that allow visualization of muscles in living animals. Examination of the innervation of the muscles in controls and mutants is done by concomitant labeling of the MNs (CD8-RFP driven in MNs). […]

dSod1-G85R mutants = test: Spontaneous motor neuron activity recorded from larval muscles with motor circuit intact; details: expression of Gbb
Source text: Consistent with the reduced motility observed in dSod1-G85R late 3rd instar larvae, there was a concordant reduction in the spontaneous activity of MNs when recorded from larval muscles in preparations with the motor circuit intact (brain and ventral nerve cord (VNC) remain attached to the body wall muscles). […] These analyses, coupled with studies on muscle structure can provide a well-defined depiction of disease progression. While ALS paralysis results from a dramatic degeneration of MNs and atrophied muscles, it is unclear when and where the decline in function originates. It could begin in a specific set of cells or the loss of function could be a systemic effect. This can be addressed using the Drosophila model system disclosed herein. For example, directed expression of channel-rhodopsin (ChR2) to specific cells or neurons can be done, followed by excitation of those cells with a flash of light and recording of the response in the circuit output of a particular larval muscle. Driving UAS-ChR2 within different neurons (OK371Gal4 in motorneurons, ChaGal4 in cholinergic neurons, specific neural Gal4 lines from Janeila Farm collection) (55) can be done to address the integrity of the neural circuit and interrogate the function of individual neurons.
Gbb, the Drosophila orthologue of vertebrate BMPs 5, 6, 7, acted as a retrograde signal at the NMJ (56). […]

G85R/H71Y = test: Adult eclosion (emergence from the pupal case); details: G85R/H71Y flies; expression of Gbb; 15% without Gbb
Source text: as §1

B1: Gbb: the Drosophila orthologue of vertebrate BMPs 5, 6, 7; expressed genetically in the flies, not dosed (protein, UniProt P27091 336-455, looked up)
Protein 60A: SVSPNNVPLLEPMESTRSCQMQTLYIDFKDLGWHDWIIAPEGYGAFYCSGECNFPLNAHMNATNHAIVQTLVHLLEPKKVPKPCCAPTRLGALPVLYHLNDENVNLKKYRNMIVKSCGCH
[1]; dSod1-G85R mutant larvae
  locomotor defect: rescued
[1]; dSod1-H71Y mutant larvae
  locomotor defect: rescued
dSod1-G85R mutants
  spontaneous MN activity: restored normal spontaneous MN activity
G85R/H71Y
  eclosion: 45%
